# Residue numbers refer to the chain shown, from its start.
# T1: hCD27-EGFP on HEK293 cells (human, UniProt P26842 20-260)
# T1 construct: pcDNA4-hCD27-EGFP transfected into HEK293; not shown: EGFP, C5MKY7
# T1 sequence (looked up): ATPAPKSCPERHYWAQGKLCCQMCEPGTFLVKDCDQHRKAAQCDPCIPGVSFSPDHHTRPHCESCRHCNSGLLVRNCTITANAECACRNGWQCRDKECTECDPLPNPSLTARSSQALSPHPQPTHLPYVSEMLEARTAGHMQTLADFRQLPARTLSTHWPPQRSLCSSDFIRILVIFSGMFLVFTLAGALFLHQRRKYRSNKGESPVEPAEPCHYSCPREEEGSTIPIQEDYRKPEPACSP
# T2: hOX40-muFc (human; mouse, UniProt P43489 29-216)
# T2 construct: range 1-216; Expressed in HEK293, purified on Protein A; also called recombinant human OX40; not shown: mouse IgG1-Fc (muFc) domain, residue 98 to residue 324 of P01868
# T2 sequence (looked up): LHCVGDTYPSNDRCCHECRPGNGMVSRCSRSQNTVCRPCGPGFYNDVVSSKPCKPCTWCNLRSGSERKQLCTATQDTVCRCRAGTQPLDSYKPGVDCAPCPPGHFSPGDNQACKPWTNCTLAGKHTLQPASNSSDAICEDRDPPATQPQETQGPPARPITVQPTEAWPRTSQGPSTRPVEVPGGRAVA
# B1: O21 mAb (antibody, IgG4, V domains shown)
# VH: QVQLQQSGPGLVKPSQTLSLTCAISGDSVSSNSVSWDWIRQSPSRGLEWLGRTYYRSKWYNEYAVSVESRITINPDTSKNQFSLQLNSVTPEDTAIYFCVRNNYFFDLWGRGTLVTVSS
# VL: EIVLTQSPATLSLSPGERATLSCRASQSVSSYLAWYQQKPGQAPRLLIYDASDRATGIPARFSGSGSGTDFTLTISSLEPEDFAVYYCQLRSNWPPGYTFGQGTKVEIK
# notes: also called 021 mAb; anti-OX40 21# mAb; not shown: human immunoglobulin gamma4 (IgG4) constant region, P01861; human immunoglobulin kappa light chain constant region, P01834
# B2: O19 mAb (antibody, IgG4, V domains shown)
# VH: QVQLVESEGGLVQPGGSLRLSCAASRFTFSNYWMSWVRQAPGKGLEWVANIKQDGSEKYYMDSVKGRFTISRDNAKNSLFLQMNTLRAEDTAMYYCTRVSFGVPTYDDFWRSYATPAWYFDFWGRGTLVTVSS
# VL: QSALIQPASVSGSPGQSITISCTGISSDDGYYKYVSWYQQYPGKAPKLMIYDVSKRPSGISFRFSGSKSGNTASLTISGLQAEDEADYYCSSYTSNMTPYVFGTGTKVTVL
# notes: IgG4, lambda; expressed in HEK293; not shown: human immunoglobulin gamma4 (IgG4) constant region, P01861; human immunoglobulin lambda light chain constant region, A0M8Q6
# B3: O3 scFv (scFv)
# scFv: QVQLQQWGAGLLKPSETLSLTCGFNGEYFTDYFWTWVRQPPGEALEWLALIYWDDDERYSPSLKNRLIITKDISKNQVVLTMTHMEPADTGTYYCARWGGSLMNAFDVWGPGTMVTVSSGGGGSGGGGSGGGGSQSALIQPASVSGSPGQSITISCTGTSSDVGGYNYVSWYQRHPGKAPRLMIYDVTKRPSGVSNRFSGSKSGNTASLTISGLQAEDEADYYCSSYTSSSIAVFGGGTQLTVL
# notes: Purified as scFv fused with human IgG1-Fc, expressed in HEK293; also called anti-hOX40 scFv O3; not shown: human IgG1-Fc (hFc) domain, residues 104-330 of P01857
# B4: O21 scFv (scFv)
# scFv: QVQLQQSGPGLVKPSQTLSLTCAISGDSVSSNSVSWDWIRQSPSRGLEWLGRTYYRSKWYNEYAVSVESRITINPDTSKNQFSLQLNSVTPEDTAIYFCVRNNYFFDLWGRGTLVTVSSGGGGSGGGGSGGGGSEIVLTQSPATLSLSPGERATLSCRASQSVSSYLAWYQQKPGQAPRLLIYDASDRATGIPARFSGSGSGTDFTLTISSLEPEDFAVYYCQLRSNWPPGYTFGQGTKVEIK
# notes: Purified as scFv fused with human IgG1-Fc; also called anti-OX40 21# scFv; not shown: human IgG1-Fc (hFc) domain, residues 104-330 of P01857
# B5: O3 mAb (antibody, IgG4, V domains shown)
# VH: QVQLQQWGAGLLKPSETLSLTCGFNGEYFTDYFWTWVRQPPGEALEWLALIYWDDDERYSPSLKNRLIITKDISKNQVVLTMTHMEPADTGTYYCARWGGSLMNAFDVWGPGTMVTVSS
# VL: QSALIQPASVSGSPGQSITISCTGTSSDVGGYNYVSWYQRHPGKAPRLMIYDVTKRPSGVSNRFSGSKSGNTASLTISGLQAEDEADYYCSSYTSSSIAVFGGGTQLTVL
# notes: IgG4, lambda; expressed in HEK293; also called 03 mAb; not shown: human immunoglobulin gamma4 (IgG4) constant region, P01861; human immunoglobulin lambda light chain constant region, A0M8Q6
# B6: anti-OX40 21#H96 mAb (antibody, IgG4, V domains shown)
# VH: B1 VH with N103D
# VL: B1 VL
# notes: Formatted as IgG according to Embodiment 3 (IgG4); also called H96 heavy chain mutant; not shown: human immunoglobulin gamma4 (IgG4) constant region, P01861; human immunoglobulin kappa light chain constant region, P01834
# B7: anti-OX40 21#H28H33 mAb (antibody, IgG4, V domains shown)
# VH: B1 VH with S28N, S33G
# VL: B1 VL
# notes: Formatted as IgG 'according to the method in Embodiment 3' (IgG4); not shown: human immunoglobulin gamma4 (IgG4) constant region, P01861; human immunoglobulin kappa light chain constant region, P01834
# B8: anti-OX40 21#H65 mAb (antibody, IgG4, V domains shown)
# VH: B1 VH with S69N
# VL: B1 VL
# notes: Formatted as IgG according to Embodiment 3 (IgG4); not shown: human immunoglobulin gamma4 (IgG4) constant region, P01861; human immunoglobulin kappa light chain constant region, P01834
# B9: anti-OX40 21#H96-L80 mAb (antibody, V domains shown)
# VH: B1 VH with N103D
# VL: B1 VL with S30G, D53N, L90Q
# notes: Formatted as IgG according to Embodiment 3 (IgG4); also called H96-L80 IgG4; not shown: human immunoglobulin gamma4 (IgG4) constant region, P01861; human immunoglobulin kappa light chain constant region, P01834
# B10: anti-OX40 21#VHnew-L80 mAb (antibody, IgG4, V domains shown)
# VH: B1 VH with S33G, S69N, N103D
# VL: B1 VL with S30G, D53N, L90Q
# notes: as for B8
# Molecular target: T1, hCD27-EGFP on HEK293 cells
# Experiment: flow cytometry on HEK293 cells expressing hCD27-EGFP, anti-hIg-PE
# Description: (§1) HEK293 cells expressing hOX40-EGFP, hCD137-EGFP and hCD27-EGFP obtained in Embodiment 1 were resuspended in 0.5% PBS-BSA Buffer and anti-hOX40 mAb protein was added and the mixture was incubated on ice for 20 min. After washing, secondary antibody anti-hlg-PE (eBioscience) was added, and the mixture was incubated on ice for 20 min. After washing, the cells were resuspended in 500 μl 0.5% PBS-BSA Buffer and detected by flow cytometry.
row,binding result,Binder
1,no binding,B1
2,no binding,B2

# Molecular target: T2, hOX40-muFc
# Experiment: ELISA, hOX40-muFc coated at 2 µg/ml, goat anti-human IgG-HRP; column C of the drawn 4-P fit table y=(A-D)/(1+(x/C)^B)+D; the axis prints no unit, ng/ml is from paragraph 210
# Description: (§2) hOX40-muFc was diluted to 2 μg/ml with coating buffer (50 mM Na₂CO₃, NaHCO₃ pH 9.6), 100 μL/well, 4° C. overnight. After washing, blocking was performed using 3% BSA-PBS for 1 h at 37° C. The anti-hOX40 antibodies were diluted respectively from 2000 ng/ml and was diluted 2-fold in a total of 11 concentrations, with the diluent (1% BSA-PBS) as a control, and incubated at 37° C. for 2 h. Goat anti-human IgG-HRP conjugated was added and incubated for 1 h at 37° C. Soluble one-component TMB substrate developer solution is added, and the developing was performed in dark at room temperature for 5-10 min. 2N H₂SO₄ 50 μL/well was added to terminate the color development reaction. The OD of the obtained solution was determined at 450 nm-650 nm on MD SpectraMax Plus 384 microplate reader and SoftMaxPro v5.4 was used for processing data, making graphs and analysis. […] It can be seen from FIG. 5 and FIG. 6 that all the above variants of anti-OX40 21 # mAb can bind to OX40 and the affinity of the in vitro affinity-matured anti-OX40 21 # VHnew-L80 mAb and anti-OX40 21#H96-L80 mAb increased approximately two times compared to anti-OX40 21# mAb.
row,EC50 [µg/mL],Binder
1,0.309,B3
2,0.0139,B1
3,0.00949,B4
4,0.0139,B5

# Molecular target: T2, hOX40-muFc
# Experiment: as above
# Remark: another data set of the same source
# Description: as §2
row,EC50 [µg/mL],Binder
1,0.046,B6
2,0.0758,B1
3,0.0432,B7
4,0.0609,B8

# Molecular target: T3, hCD137-EGFP on HEK293 cells (human, UniProt Q07011 24-255)
# T3 construct: pcDNA4-hCD137-EGFP transfected into HEK293; not shown: EGFP, C5MKY7
# T3 sequence (Q07011 24-255): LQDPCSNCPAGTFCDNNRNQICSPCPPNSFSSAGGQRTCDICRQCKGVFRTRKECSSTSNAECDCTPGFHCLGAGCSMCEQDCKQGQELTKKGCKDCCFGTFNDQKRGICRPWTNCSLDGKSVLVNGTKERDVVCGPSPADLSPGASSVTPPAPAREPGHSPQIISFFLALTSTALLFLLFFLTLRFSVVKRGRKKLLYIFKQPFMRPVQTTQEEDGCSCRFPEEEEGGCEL
# Experiment: flow cytometry on HEK293 cells expressing hCD137-EGFP, anti-hIg-PE
# Description: as §1
row,binding result,Binder
1,no binding,B1
2,no binding,B2

# Molecular target: T2, hOX40-muFc
# Experiment: SPR, BIAcore X100; antibody captured by anti-human Fc on CM5 chip, OX40-muFc as analyte
# Description: (§3) The binding kinetics of anti-hOX40 antibody to recombinant human OX40 was measured by surface plasmon resonance (SRP) method using a BIAcore X100 instrument. Anti-human Fc antibody (no cross-identification against the mouse Fc) was conjugated on CM5 chip, the test antibody was diluted to 5 nM with running buffer and captured as a ligand by the anti-human Fc antibody on the CM5 chip. […] The injection time is 180 s, the dissociation time is 1800 s and the regeneration time is 60 s. The running buffer is HBS-EP+, and the regeneration buffer is 10 mM glycine-HCl (pH 2.0). The association rate (kₒₙ) and dissociation rate (koff) were calculated using a simple one-to-one Languir binding model (BIAcore Evaluation Software version 3.2). The equilibrium dissociation constant (kD) is calculated as the ratio koff/kₒₙ. It can be seen from Table 3 that the affinity of the affinity-matured anti-OX40 21 # H96-L80 mAb is increased approximately two times.
row,fold increase of affinity (reference not given; O21 mAb by Table 3) [times],Binder
1,~2,B9

# Molecular target: T2, hOX40-muFc
# Experiment: SPR, BIAcore X100; antibody captured by anti-human Fc on CM5 chip, OX40-muFc as analyte, 1:1 model
# Description: as §3
Kd [nM],koff [s⁻¹],kon [M⁻¹ s⁻¹],Binder
14.5,0.000608,41800,B1
10.3,0.000342,33300,B10
7.9,0.000237,30000,B9
1.38,0.000391,284000,B5

# Molecular target: T2, hOX40-muFc
# Experiment: ELISA, hOX40-muFc coated at 2 µg/ml, goat anti-human IgG-HRP; column C of the drawn 4-P fit table y=(A-D)/(1+(x/C)^B)+D; the axis prints no unit, ng/ml is from paragraph 210
# Remark: another data set of the same source
# Description: as §2
row,EC50 [µg/mL],Binder
1,0.0298,B1
2,0.0134,B10
3,0.0154,B9

# Molecular target: T2, hOX40-muFc
# Experiment: ELISA, hOX40-muFc coated at 2 µg/ml, goat anti-human IgG-HRP
# Description: as §2
row,fold increase of affinity compared to anti-OX40 21# mAb [times],Binder
1,~2,B10
2,~2,B9
